Positions of bridges follow the written chain, without caps; N, C: chain ends. Non-standard residues stand in square brackets, D forms with d. No end group written: not given here. COCH2 = acetyl group that carries the bridge; NMeL = CN[C@@H](CC(C)C)C(=O)O; hLeu = CC(C)CC[C@H](N)C(=O)O; hCys = N[C@@H](CCS)C(=O)O; Orn = NCCC[C@H](N)C(=O)O
Experiments:
[1] = Reductive stability of cyclic peptide (DTT treatment, LC); type: physicochemical; conditions: residual rate after DTT treatment, room temperature, 1 hour
Method: The molecular stability of the cyclic peptide was evaluated by analyzing an aqueous solution of the cyclic peptide treated with a reducing agent by liquid chromatography (LC).
The reducing agent treatment was performed under the following conditions based on the concentration of glutathione contained in the cells. 25 μL of a 0.2 mg/mL cyclic peptide aqueous solution was prepared, 58.8 μL of a 12.6 mmol/L DTT aqueous solution was added to the aqueous solution, and the mixture was incubated at room temperature for 1 hour to obtain an aqueous solution of the cyclic peptide treated with a reducing agent. The DTT aqueous solution was used by diluting a 1 mol/L (+−)-dithiothreitol (DTT) solution (FUJIFILM Wako Pure Chemical Corporation, 044-33871) with water. The total area of all the peaks in LC/MS of the cyclic peptide before the reducing agent treatment was set to 100%, and the proportion of the total area of all the peaks in LC/MS of the aqueous solution of the cyclic peptide treated with the reducing agent was determined to calculate the residual rate of the cyclic peptide, and the molecular stability was evaluated according to the following evaluation criteria. The evaluation result preferably satisfies the evaluation criteria A, B, or C.
• A: The residual rate of cyclic peptide is 90% or more. • B: The residual rate of the cyclic peptide is 70% or more and less than 90% • C: The residual rate of the cyclic peptide is 50% or more and less than 70% • D: The residual rate of the cyclic peptide is less than 50%
The LC used for the evaluation of molecular stability was set to the following conditions. • LC device: Prominence series (pump, column oven, autosampler, detector) (manufactured by Shimadzu Corporation) • Detector: photodiode array detector (SPD-M20A), measurement wavelength of 280 nm • Column: TSKgel ODS-100V, inner diameter of 4.6 mm×length of 150 mm, particle diameter of 5 μm (manufactured by Tosoh Corporation) • Eluent A: solution containing 0.1% trifluoroacetic acid as solute, and solvent is 100% water • Eluent B: solution containing 0.1% trifluoroacetic acid as solute, and solvent is 100% acetonitrile • Flow rate: 1.0 mL/min • Injection amount: 25 μL • Gradient: 20% to 50%: Eluent B (0 to 15 minutes), 100%: Eluent B (15 minutes) • Column temperature: 40° C.

[2] = target: T1, Recombinant Human FGFR1 alpha (IIIc) Fc Chimera Protein (Homo sapiens, UniProt P11362); assay: SPR binding affinity of chemically synthesized cyclic peptide to immobilized FGFR; conditions: SPR binding amount at 10 nmol/L cyclic peptide, 25° C.; chemically synthesized product
T1 construct: purchased R&D systems 658-FR-050
T1 sequence (P11362 with tags, fused parts or gaps limits assumed): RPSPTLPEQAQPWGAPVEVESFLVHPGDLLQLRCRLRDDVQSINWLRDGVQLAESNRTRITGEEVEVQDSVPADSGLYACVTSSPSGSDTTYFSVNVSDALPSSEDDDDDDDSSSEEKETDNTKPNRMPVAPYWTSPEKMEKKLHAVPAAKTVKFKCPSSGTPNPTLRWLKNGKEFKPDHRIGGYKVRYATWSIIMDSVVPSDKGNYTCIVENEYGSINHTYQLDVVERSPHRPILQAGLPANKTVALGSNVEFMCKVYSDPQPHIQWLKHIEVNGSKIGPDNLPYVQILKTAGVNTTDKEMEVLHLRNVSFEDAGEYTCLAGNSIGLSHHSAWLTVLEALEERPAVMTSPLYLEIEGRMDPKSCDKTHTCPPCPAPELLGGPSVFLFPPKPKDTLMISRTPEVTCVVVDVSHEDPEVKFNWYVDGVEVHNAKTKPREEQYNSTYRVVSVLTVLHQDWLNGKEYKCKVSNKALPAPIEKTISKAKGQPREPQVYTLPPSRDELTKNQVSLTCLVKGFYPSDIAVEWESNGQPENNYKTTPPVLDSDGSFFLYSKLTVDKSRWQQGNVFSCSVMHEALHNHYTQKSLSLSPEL
Method: The binding affinity of the cyclic peptide to FGFR was evaluated using a surface plasmon resonance (SPR) method.
The binding affinity of the chemically synthesized cyclic peptide to FGFR was evaluated by the following procedure.
A CM5 sensor chip (Cytiva, 29149603) was set in Biacore-T200 (manufactured by Cytiva) which is a surface plasmon resonance device, and an HBS-EP buffer (Cytiva, BR100826) was added as a running buffer at a flow rate of 10 μL/min to equilibrate the flow channel. Next, 70 μL of a mixed aqueous solution of 0.2 mol/L 1-(3-dimethylaminopropyl)-3-ethylcarbodiimide (EDC) and 0.05 mol/L N-hydroxysuccinimide (NHS) was added to activate the sensor chip. Then, Recombinant Human FGFR1 alpha (IIIc) Fc Chimera Protein CF (R&D systems, 658-FR-050) prepared at 50 nmol/L in an Acetate 4.5 buffer (Cytiva, BR100350) was added thereto to perform immobilization at about 5000 RU. Thereafter, the blocking treatment was performed with an ethanolamine solution. In addition, in another flow channel of the same sensor chip, blocking treatment was performed immediately after activation without immobilizing FGFR.
A cyclic peptide diluted to 10 nmol/L using HBS-EP was added to each flow channel of the FGFR-immobilized sensor chip produced above at 25° C. for 10 minutes, then HBS-EP was allowed to flow as a running buffer for 30 minutes, and the binding of the cyclic peptide to FGFR was measured. Thereafter, a regeneration treatment of removing the bound cyclic peptide was performed by repeating the flow of a regeneration liquid in which sodium chloride powder was dissolved in Glysine 1.5 (Cytiva, BR100354) to a final concentration of 0.15 mol/L for 1 minute in each flow channel twice. The binding amount of the cyclic peptide was evaluated from the difference between the measured value of Biacore-T200 in the flow channel in which FGFR was immobilized and the measured value of Biacore-T200 in the flow channel in which FGFR was not immobilised, in a case where a 10 nmol/L cyclic peptide was allowed to flow.
The binding amount of the cyclic peptide evaluated above was normalized to the binding amount of the cyclic peptide molecules per one molecule of FGFR using the molecular weights of the cyclic peptide and FGFR, and the binding affinity to FGFR was evaluated according to the following evaluation criteria. The evaluation result preferably satisfies the evaluation criteria A, B, or C.
• A: The binding amount is 0.7 molecules of the cyclic peptide/one molecule of FGFR or more. • B: The binding amount is 0.5 molecules of the cyclic peptide/one molecule of FGFR or more and less than 0.7 molecules of cyclic peptide/one molecule of FGFR. • C: The binding amount is 0.1 molecules of cyclic peptide/one molecule of FGFR or more and less than 0.5 molecules of cyclic peptide/one molecule of FGFR. • D: The binding amount is less than 0.1 molecules of the cyclic peptide/one molecule of FGFR.

[3] = Alkali treatment stability of cyclic peptide (LC); type: physicochemical; conditions: 0.5 mol/L sodium hydroxide aqueous solution added, room temperature, 3 hours
Method: In addition, the stability of the cyclic peptide (SEQ ID NO: 335) containing a cysteine residue in the cyclized portion and the cyclic peptide (SEQ ID NO: 327) containing a homocysteine residue in the cyclized portion was compared under the following alkali treatment, which is a more severe condition.
The alkali treatment was performed by the following method. 25 μL of a 0.2 mg/mL cyclic peptide aqueous solution was prepared, 58.8 μL of a 0.5 mol/L sodium hydroxide aqueous solution was added to the aqueous solution, and the mixture was incubated at room temperature for 3 hours to obtain an aqueous solution of the cyclic peptide alkali-treated. The total area of all the peaks in LC/MS of the cyclic peptide before the alkali treatment was set to 100%, and the proportion of the total area of all the peaks in LC/MS of the aqueous solution of the cyclic peptide alkali-treated was determined to calculate the residual rate of the cyclic peptide.
The LC conditions used for the evaluation of molecular stability are the same as those in the measurement of the above-described cyclic peptide treated with a reducing agent.

[4] = test system: hMSC-Human Mesenchymal Stem Cells; assay: Effect of maintaining MSC undifferentiated potency (gene expression); type: cell-based
Method: The effect of maintaining mesenchymal stem cell (MSC) undifferentiated potency of the cyclic peptide complex was evaluated.
MSC was prepared in the same manner as in Example 7.
The evaluation of the effect of maintaining the MSC undifferentiated potency was performed by the following method. First, a culture medium (hereinafter, referred to as a custom culture medium) in which bFGF was removed from PRIME-XV MSC Expansion XSFM (FUJIFILM Irvine Scientific, Inc., 91149) was prepared. Next, Prime-XV Human Fibronectin (FUJIFILM Irvine Scientific, Inc., 31002) was dissolved in PBS (Fujifilm Wako Pure Chemical Corporation, 164-23551), 2 μg/cm^2 of the solution was added to a 12-well plate used for proliferation, and the 12-well plate was allowed to stand at room temperature for 3 hours to coat the 12-well plate with fibronectin. Thereafter, the MSCs subjected to the subculture were peeled using Tryple Express (Thermo, 12604-013), washed once with a custom culture medium, suspended in a custom culture medium in which a cyclic peptide complex or bFGF (R&D Systems, 3718-GMP) was diluted to final concentrations of 10 nmol/L and 1 nmol/L, and seeded on a 12-well plate coated with fibronectin. In this case, conditions in which the cyclic peptide complex and bFGF were not added as a negative control were prepared. After culturing at 37° C. (5% CO2) for 2 nights, the culture medium was replaced by removing the supernatant of the culture medium and adding the same amount of a culture medium prepared to have the same composition as the removed culture medium. After further culturing at 37° C. (5% CO2) for 2 nights, RNA was extracted using an RNeasy Plus Mini Kit (Qiagen, 74136) according to the manufacturer's protocol. […] The expression level of each gene was normalized by setting the expression level of the well to which 1 nmol/L bFGF was added to 1.

[5] = 1 nmol/L bFGF versus negative control

334 (AXVWTFDRHAQEISQALHXVKKK; Description of Artificial Sequence: Cyclic peptide) [compound 334]
Evaluation result of reductive stability [1]: A (The residual rate of cyclic peptide is 90% or more.) | Evaluation result of binding affinity to FGFR [2]: A (The binding amount is 0.7 molecules of the cyclic peptide/one molecule of FGFR or more.)

336 (ACVWTFDRHAQEISQALHCVKKK; disulfide 2-19 (inferred)) [compound 336]
Evaluation result of reductive stability [1]: D (The residual rate of the cyclic peptide is less than 50%) | Evaluation result of binding affinity to FGFR [2]: D (The binding amount is less than 0.1 molecules of the cyclic peptide/one molecule of FGFR.)

337 (F[Orn](COCH2)VYTFDAHAHSLDAALN[hCys]IKKK; thioether 2-19) [compound 337]
Evaluation result of reductive stability [1]: B (The residual rate of the cyclic peptide is 70% or more and less than 90%) | Evaluation result of binding affinity to FGFR [2]: C (The binding amount is 0.1 molecules of cyclic peptide/one molecule of FGFR or more and less than 0.5 molecules of cyclic peptide/one molecule of FGFR.)

338 (FXVYTFDAHAHSLDAALNXIKKK; Description of Artificial Sequence: Cyclic peptide) [compound 338]
Evaluation result of reductive stability [1]: A (The residual rate of cyclic peptide is 90% or more.) | Evaluation result of binding affinity to FGFR [2]: C (The binding amount is 0.1 molecules of cyclic peptide/one molecule of FGFR or more and less than 0.5 molecules of cyclic peptide/one molecule of FGFR.)

339 (F[Orn](COCH2)VYTFDAHAHS[NMeL]DAALN[hCys]IKKK; thioether 2-19) [compound 339]
Evaluation result of reductive stability [1]: B (The residual rate of the cyclic peptide is 70% or more and less than 90%) | Evaluation result of binding affinity to FGFR [2]: C (The binding amount is 0.1 molecules of cyclic peptide/one molecule of FGFR or more and less than 0.5 molecules of cyclic peptide/one molecule of FGFR.)

340 (F[Orn](COCH2)VYTFDAHAHS[hLeu]DAALN[hCys]IKKK; thioether 2-19) [compound 340]
Evaluation result of reductive stability [1]: B (The residual rate of the cyclic peptide is 70% or more and less than 90%) | Evaluation result of binding affinity to FGFR [2]: B (The binding amount is 0.5 molecules of the cyclic peptide/one molecule of FGFR or more and less than 0.7 molecules of cyclic peptide/one molecule of FGFR.)

341 ([Orn](COCH2)VYTFDAHAHSLDAALN[hCys]IKKK; thioether 1-18) [compound 341]
Evaluation result of reductive stability [1]: B (The residual rate of the cyclic peptide is 70% or more and less than 90%) | Evaluation result of binding affinity to FGFR [2]: C (The binding amount is 0.1 molecules of cyclic peptide/one molecule of FGFR or more and less than 0.5 molecules of cyclic peptide/one molecule of FGFR.)

342 (F[Orn](COCH2)VYTFDAHAHSLDAALN[hCys]KKK; thioether 2-19) [compound 342]
Evaluation result of reductive stability [1]: B (The residual rate of the cyclic peptide is 70% or more and less than 90%) | Evaluation result of binding affinity to FGFR [2]: C (The binding amount is 0.1 molecules of cyclic peptide/one molecule of FGFR or more and less than 0.5 molecules of cyclic peptide/one molecule of FGFR.)

A-(C)-VWTFDRHAQEISQALH-(K(acetyl))-VKKK (ACVWTFDRHAQEISQALHK(COCH2)VKKK; thioether 2-19 (inferred)) [SEQ ID NO: 335]
residual rate of the cyclic peptide [3]: 15%

A-(Hcy)-VWTFDRHAQEISQALH-(K(acetyl))-VKKK (A[hCys]VWTFDRHAQEISQALHK(COCH2)VKKK; thioether 2-19) [SEQ ID NO: 327]
residual rate of the cyclic peptide [3]: 28%

bFGF: basic fibroblast growth factor (R&D Systems, 3718-GMP), growth factor used as comparison
expression level of Nanog [4, 5]: did not change substantially | expression level of Oct4 [4, 5]: did not change substantially | expression level of Sox2 ([4]; cyclic peptide complex 10 nmol/L, bFGF 1 nmol/L, normalized to 1 nmol/L bFGF = 1, FIG. 4): changed

From patent publication US20260008817A1, “CYCLIC PEPTIDE OR SALT THEREOF, AND USES THEREOF” (FUJIFILM Corporation, priority 2023, published 2026)
